Results on two substances are retold here after patent publication US11866467.

Assay [1] has as its target TGF-β receptor on human peripheral blood CD4+ T cells (human) (UniProt P36897). Description: cell-based or functional assay.
Assay [2] addresses TGF-β receptor (type I and II receptors) on mouse cells (MFB-F11 fibroblasts, mouse splenocytes, mouse CD4+ T cells) (mouse) (UniProt Q64729). Description: cell-based or functional assay.
Sequence of UniProt Q64729 (Q64729 30-503, chain 1 of 2): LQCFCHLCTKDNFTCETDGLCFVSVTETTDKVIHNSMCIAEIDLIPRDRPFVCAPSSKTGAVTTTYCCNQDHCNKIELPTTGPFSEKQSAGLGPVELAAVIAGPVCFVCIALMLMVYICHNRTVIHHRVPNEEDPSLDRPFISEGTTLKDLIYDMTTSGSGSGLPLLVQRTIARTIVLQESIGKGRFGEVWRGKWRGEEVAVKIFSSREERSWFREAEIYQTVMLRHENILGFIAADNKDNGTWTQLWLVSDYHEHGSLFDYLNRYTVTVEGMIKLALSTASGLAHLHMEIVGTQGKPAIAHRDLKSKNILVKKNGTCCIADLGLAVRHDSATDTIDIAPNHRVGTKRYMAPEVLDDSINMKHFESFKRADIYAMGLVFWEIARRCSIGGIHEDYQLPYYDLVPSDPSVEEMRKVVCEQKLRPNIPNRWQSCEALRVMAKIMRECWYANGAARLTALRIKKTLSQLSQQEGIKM
Sequence of UniProt Q64729 (Q62312 24-567, chain 2 of 2, further chain): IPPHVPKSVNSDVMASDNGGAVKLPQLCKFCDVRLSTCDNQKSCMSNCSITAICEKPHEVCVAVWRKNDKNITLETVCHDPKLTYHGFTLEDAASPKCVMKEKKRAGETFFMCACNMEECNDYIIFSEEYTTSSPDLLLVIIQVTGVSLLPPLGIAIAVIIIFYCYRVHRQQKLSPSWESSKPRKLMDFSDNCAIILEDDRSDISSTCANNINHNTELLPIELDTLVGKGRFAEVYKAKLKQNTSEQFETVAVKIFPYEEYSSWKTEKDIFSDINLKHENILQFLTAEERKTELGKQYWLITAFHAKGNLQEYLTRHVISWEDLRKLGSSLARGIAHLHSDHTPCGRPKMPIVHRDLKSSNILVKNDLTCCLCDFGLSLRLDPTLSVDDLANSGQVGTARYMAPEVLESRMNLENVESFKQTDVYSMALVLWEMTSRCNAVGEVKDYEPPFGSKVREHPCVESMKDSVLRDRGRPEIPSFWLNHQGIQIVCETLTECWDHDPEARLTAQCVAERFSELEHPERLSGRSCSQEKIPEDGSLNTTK

Sequence of UniProt P36897 (P36897 34-503, chain 1 of 2): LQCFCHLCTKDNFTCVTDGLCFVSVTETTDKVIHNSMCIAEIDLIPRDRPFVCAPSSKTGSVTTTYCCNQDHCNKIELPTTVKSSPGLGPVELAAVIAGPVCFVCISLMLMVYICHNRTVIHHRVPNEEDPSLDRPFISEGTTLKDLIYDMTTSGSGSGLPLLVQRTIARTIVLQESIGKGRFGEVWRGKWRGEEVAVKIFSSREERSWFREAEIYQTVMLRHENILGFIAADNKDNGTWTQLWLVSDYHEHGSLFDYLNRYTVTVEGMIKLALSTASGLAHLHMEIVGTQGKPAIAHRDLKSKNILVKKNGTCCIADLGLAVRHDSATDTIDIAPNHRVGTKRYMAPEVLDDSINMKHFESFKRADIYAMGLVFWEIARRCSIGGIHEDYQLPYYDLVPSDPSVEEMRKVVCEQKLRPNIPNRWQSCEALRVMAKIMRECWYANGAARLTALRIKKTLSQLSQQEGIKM
Sequence of UniProt P36897 (P37173 23-567, chain 2 of 2, further chain): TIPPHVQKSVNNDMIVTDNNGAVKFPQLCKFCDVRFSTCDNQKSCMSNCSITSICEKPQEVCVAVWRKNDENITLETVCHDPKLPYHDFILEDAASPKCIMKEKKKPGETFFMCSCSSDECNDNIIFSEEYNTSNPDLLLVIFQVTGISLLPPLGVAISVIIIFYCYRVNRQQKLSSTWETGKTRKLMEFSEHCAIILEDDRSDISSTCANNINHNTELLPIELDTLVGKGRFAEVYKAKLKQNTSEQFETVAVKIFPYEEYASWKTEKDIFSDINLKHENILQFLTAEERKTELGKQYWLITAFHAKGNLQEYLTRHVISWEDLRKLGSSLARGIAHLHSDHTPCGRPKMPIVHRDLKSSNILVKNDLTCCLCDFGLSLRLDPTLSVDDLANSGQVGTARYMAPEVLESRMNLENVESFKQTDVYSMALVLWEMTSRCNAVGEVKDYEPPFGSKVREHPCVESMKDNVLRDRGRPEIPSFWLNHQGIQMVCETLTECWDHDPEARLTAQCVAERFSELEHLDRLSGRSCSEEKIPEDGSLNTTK

“H. polygyrus TGF-β Mimic (TGM), purified recombinant protein with hexa-histidine C-terminal tag (ligand)” yielded a CD4+CD25+Foxp3+ Treg among human CD4+ T cells, maximum in assay [1] of 84%. Further, in assay [2], the Foxp3+ Treg conversion, % of all mouse CD4+ cells at 38.1 ng/ml (0.78 nM) stood at 90.7% and the MFB-F11 reporter cells, alkaline phosphatase, OD405 at 100 ng/ml (maximum signal) amounted to 2.46 OD405.
In assay [2], “recombinant human TGF-β1 (R&D Systems) (from UniProt P01137 279-390) (ligand)” registered a Foxp3+ Treg conversion, % of all mouse CD4+ cells at 10 ng/ml (0.78 nM monomeric hTGF-β1) of 79.7% and an MFB-F11 reporter cells, alkaline phosphatase, OD405 at 100 ng/ml (maximum signal) of 1.48 OD405.
